Data as given in US20150111821A1.

Biological target: FGF receptors
Assay: cell-based or functional assay

Substance: FGF1^ΔNT (10-140αα) (SEQ ID NO: 7), N-terminally truncated FGF1 (from UniProt P05230 25-155) (ligand; the values are: fold reduction in signaling)
- FGFR signaling (phosphorylation of downstream ERK and AKT pathways, Western blot, HEK293 cells): 100 fold
